Experimental data reported in paper PMC12630689 (Nature Communications, 2025).

Molecular target: the molecule itself
Experiment: cryo-EM structure

B1: Shaker-IR-I384R (Shaker zH4 K+ channel with fast inactivation removed, Δ6-46, with the I384R mutation) (natural protein, UniProt P08510 1-655, looked up)
chain: MAAVALREQQLQRNSLDGYGSLPKLSSQDEEGGAGHGFGGGPQHFEPIPHDHDFCERVVINVSGLRFETQLRTLNQFPDTLLGDPARRLRYFDPLRNEYFFDRSRPSFDAILYYYQSGGRLRRPVNVPLDVFSEEIKFYELGDQAINKFREDEGFIKEEERPLPDNEKQRKVWLLFEYPESSQAARVVAIISVFVILLSIVIFCLETLPEFKHYKVFNTTTNGTKIEEDEVPDITDPFFLIETLCIIWFTFELTVRFLACPNKLNFCRDVMNVIDIIAIIPYFITLATVVAEEEDTLNLPKAPVSPQDKSSNQAMSLAILRVIRLVRVFRIFKLSRHSKGLQRLGRTLKASMRELGLLIFFLFIGVVLFSSAVYFAEAGSENSFFKSIPDAFWWAVVTMTTVGYGDMTPVGVWGKIVGSLCAIAGVLTIALPVPVIVSNFNYFYHRETDQEEMQSQNFNHVTSCPYLPGTLGQHMKKSSLSESSSDMMDLDDGVESTPGLTETHPGRSAVAPFLGAQQQQQQPVASSLSMSIDKQLQHPLQQLTQTQLYQQQQQQQQQQQNGFKQQQQQTQQQLQQQQSHTINASAAAATSGSGSSGLTMRHNNALAVSIETDV
- stoichiometry N: 4
